Data taken from patent US20240301038A1.

Molecular target: SARS-CoV-2 Spike Receptor Binding Domain (RBD) (Sino Biological) (SARS-CoV-2), P0DTC2
Details: remark: other sources report otherwise

B1: AB-009620 (antibody, V domains shown)
VH: QITLKESGPTLVKPTQTLTLTCTFSGFSLSTSGVGVGWIRQPPGKALEWLALIYWDDDKRYSPSLKSRLTITKDTSKNQVVLTMTNMDPVDTATYYCAHHEVATVFDYWGQGTLVTVSS
VL: QSALTQPASVSGSPGQSITISCTGTSSDVGAYNYVSWYQQHPGKAPKLMIYEVSNRPSGVSNRFSGSKSGNTASLTISGLQAEDEADYYCSSYTSSSTVFGGGTKLTVL
Kd: 5.99 nM
